Laboratory results published in the supplement of paper PMC10567573.

B1: ATL3 (parent)
chain: FSFRYQQELEEEIKELYENFCKHN
B2: PDLIM4 (parent)
chain: FLDERLYCESHAKARVKPPEGYDV

Variants of: B1
Assay: protein stability index of a GFP-peptide fusion (GPS, HEK-293T) (PSI 1-6); higher = more stable
Conditions: c terminus: a fixed tail appended
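Note: lentivirally expressed fusions sorted by FACS into six bins by GFP to DsRed ratio, PSI derived from sequencing read proportions per bin multiplied by bin number.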

| Variant | protein stability index |
| --- | --- |
| FSFRYQQELEEEIKELYENFCKQN | 2.75 |
| FSFRYQQELEEEIKELYENFCKRN | 1.86 |
| FSFRYQQELEEEIKELYENFCKSN | 2.1 |
| FSFRYQQELEEEIKELYENFCKTN | 3.04 |
| FSFRYQQELEEEIKELYENFCKWN | 2.14 |
| FSFRYQQELEEEIKELYENFCKYN | 2.49 |
| FSFRYQQELEEEIKELYENFCKHA | 2.37 |
| FSFRYQQELEEEIKELYENFCKHC | 2.77 |
| FSFRYQQELEEEIKELYENFCKHD | 2.49 |
| FSFRYQQELEEEIKELYENFCKHE | 1.93 |
| FSFRYQQELEEEIKELYENFCKHF | 3.38 |
| FSFRYQQELEEEIKELYENFCKHG | 2.36 |
| FSFRYQQELEEEIKELYENFCKHH | 2.64 |
| FSFRYQQELEEEIKELYENFCKHI | 2.82 |
| FSFRYQQELEEEIKELYENFCKHK | 2.48 |
| FSFRYQQELEEEIKELYENFCKHL | 2.64 |
| FSFRYQQELEEEIKELYENFCKHM | 2.49 |
| FSFRYQQELEEEIKELYENFCKHP | 1.96 |
| FSFRYQQELEEEIKELYENFCKHR | 2.42 |
| FSFRYQQELEEEIKELYENFCKHS | 2.14 |
| FSFRYQQELEEEIKELYENFCKHT | 3.13 |
| FSFRYQQELEEEIKELYENFCKHV | 3.5 |
| FSFRYQQELEEEIKELYENFCKHW | 2.12 |
| FSFRYQQELEEEIKELYENFCKHY | 2.61 |

Variants of: B2
Assay: as above
Conditions: c terminus: a fixed tail appended

| Variant | protein stability index |
| --- | --- |
| FADERLYCESHAKARVKPPEGYDV | 1.81 |
| FLDERLYCESHEKARVKPPEGYDV | 1.47 |
| FLDERIYCESHAKARVKPPEGYDV | 1.97 |
| FLDERLYCESHAKARVKPLEGYDV | 2.26 |
| FLDERLYCESHAKARVKPPEGFDV | 1.43 |
| FLDERGYCESHAKARVKPPEGYDV | 3.42 |
| HLDERLYCESHAKARVKPPEGYDV | 4.26 |
| FIDERLYCESHAKARVKPPEGYDV | 1.38 |
| FLDERLYCESHAKKRVKPPEGYDV | 1.07 |
| FLDERLDCESHAKARVKPPEGYDV | 4.71 |
| FLDERLYCESHAKNRVKPPEGYDV | 1.39 |
| FRDERLYCESHAKARVKPPEGYDV | 2.96 |
| FLDERLPCESHAKARVKPPEGYDV | 4.5 |
| FLDERLYCESHAKARVKNPEGYDV | 1.54 |
| FYDERLYCESHAKARVKPPEGYDV | 3.53 |
| FLDERLYCWSHAKARVKPPEGYDV | 1.22 |
| FLDERLYCESHAKARVKPIEGYDV | 1.86 |
| FLTERLYCESHAKARVKPPEGYDV | 1.31 |
| FLDERLYGESHAKARVKPPEGYDV | 3.41 |
| FLDERLICESHAKARVKPPEGYDV | 3.6 |
| FLDERLYSESHAKARVKPPEGYDV | 2.39 |
| FLDERLYCTSHAKARVKPPEGYDV | 1.31 |
| FLDEILYCESHAKARVKPPEGYDV | 2.24 |
| FLDERLYCESHAKARVKPPETYDV | 2.14 |

| Variant | protein stability index |
| --- | --- |
| FLDEKLYCESHAKARVKPPEGYDV | 1.66 |
| FLDERLYCESHAYARVKPPEGYDV | 2.63 |
| FLDERLYCHSHAKARVKPPEGYDV | 2.13 |
| FLDERLSCESHAKARVKPPEGYDV | 3.89 |
| FLDERLYCESHAKARCKPPEGYDV | 1.43 |
| FFDERLYCESHAKARVKPPEGYDV | 3.46 |
| FLDERLYFESHAKARVKPPEGYDV | 2.3 |
| FLDERLYCESHAKARVKPYEGYDV | 1.43 |
| FLDERLGCESHAKARVKPPEGYDV | 2.04 |
| FLDERLYCESHAKARVKPPEGYGV | 1.14 |
| FLDERLYCEGHAKARVKPPEGYDV | 1.97 |
| FSDERLYCESHAKARVKPPEGYDV | 3.37 |
| FLDERLYCESCAKARVKPPEGYDV | 1.04 |
| FLDERLYCESHAKARVKPPEGYFV | 1.73 |
| WLDERLYCESHAKARVKPPEGYDV | 2.5 |
| FLDERLYCESHAKARVKPPEGIDV | 3 |
| FLDERLYCESHAKHRVKPPEGYDV | 2.56 |
| FLDERLYCESHAKARVKPPEGYDE | 1.6 |
| FLDERLYHESHAKARVKPPEGYDV | 2.71 |
| FLDERLYCESHAKARVKPTEGYDV | 2.29 |
| FLDERLRCESHAKARVKPPEGYDV | 3.99 |
| FLDERLYCESHAKACVKPPEGYDV | 1.97 |
| FLDERLYCESHAKAGVKPPEGYDV | 1.7 |
| FLDERNYCESHAKARVKPPEGYDV | 3.08 |

| Variant | protein stability index |
| --- | --- |
| FLNERLYCESHAKARVKPPEGYDV | 1.21 |
| FLDERLYCESHAKATVKPPEGYDV | 1.67 |
| FLDERLYCESHAKARVVPPEGYDV | 2.62 |
| FLDERLYCESHAKARYKPPEGYDV | 1.51 |
| FLDERLYCESHAKARVKPPEAYDV | 1.83 |
| DLDERLYCESHAKARVKPPEGYDV | 4.34 |
| FLDERLYCESHAKARVLPPEGYDV | 2.56 |
| FLDERLYCESHAKALVKPPEGYDV | 2.41 |
| FLDERLYCESHAKARVYPPEGYDV | 1.66 |
| FLDERLQCESHAKARVKPPEGYDV | 4.26 |
| FTDERLYCESHAKARVKPPEGYDV | 2.54 |
| FLDERLYCESHAKARVKPPEGKDV | 2.46 |
| FLRERLYCESHAKARVKPPEGYDV | 2.32 |
| FLEERLYCESHAKARVKPPEGYDV | 1.94 |
| FLDERLYCESHLKARVKPPEGYDV | 1.28 |
| FLDERLYCESHAKARVKPPTGYDV | 2.26 |
| FLDERLYCESHCKARVKPPEGYDV | 1.23 |
| FLDERLYCESHAKARVKPREGYDV | 2.65 |
| LLDERLYCESHAKARVKPPEGYDV | 3.89 |
| FLDERLYCEEHAKARVKPPEGYDV | 2.1 |
| FLDERLYCASHAKARVKPPEGYDV | 1.57 |
| SLDERLYCESHAKARVKPPEGYDV | 4.63 |
| FLDERLYCESHAKARVKPPEGEDV | 2.43 |
| FLDERLYCEKHAKARVKPPEGYDV | 2.12 |

| Variant | protein stability index |
| --- | --- |
| FLDERLYCESHAKARVMPPEGYDV | 2.53 |
| FLDERLYCESHAKARQKPPEGYDV | 1.22 |
| FLDERLYCESHALARVKPPEGYDV | 1.45 |
| FLDERLYCESHAKAMVKPPEGYDV | 1.18 |
| FLDERLYCESHAKARVKPPEGYSV | 2.85 |
| FLDERLYCESHAKARVKPPGGYDV | 2.67 |
| FLDERLYCESHAKARVKPPEGYDC | 1.71 |
| FLDERLYCESHAKARVKSPEGYDV | 2.52 |
| ALDERLYCESHAKARVKPPEGYDV | 4.23 |
| FLDEGLYCESHAKARVKPPEGYDV | 2.47 |
| FLDERLYCESHAKARVKPPEGYTV | 2.03 |
| FLDERLYCESHAKARVKPKEGYDV | 2.31 |
| FLDERLYCESHAIARVKPPEGYDV | 2.71 |
| FLDERLYCESHAKARVKPPEGYDP | 2.53 |
| FLDERLYCESHAKARVKPPEGYDT | 1.53 |
| FLDERLYCENHAKARVKPPEGYDV | 1.26 |
| FHDERLYCESHAKARVKPPEGYDV | 2.24 |
| FLDERLYCESHAKARVKPPEEYDV | 2.62 |
| FLDERLYCESHAKARVKAPEGYDV | 2.82 |
| FLDERLYCESHAKARVKPPEGMDV | 1.37 |
| FLDERLYCESHAKARVKPPEGQDV | 2.55 |
| FLDERLYCESHHKARVKPPEGYDV | 1.77 |
| FLDERLYCESHAKARVSPPEGYDV | 1.48 |
| CLDERLYCESHAKARVKPPEGYDV | 3.43 |

| Variant | protein stability index |
| --- | --- |
| FLDERLYCYSHAKARVKPPEGYDV | 2.13 |
| FLDERLYCESHAKMRVKPPEGYDV | 1.76 |
| FLDERLYCESHAKARVKPPIGYDV | 2.65 |
| FLDERLYCESHAKARVKPPEGTDV | 2.29 |
| FLDERLYAESHAKARVKPPEGYDV | 1.53 |
| FLDERLYCESHAHARVKPPEGYDV | 2.18 |
| FLDERLYCESYAKARVKPPEGYDV | 2.18 |
| FLDERLYCESHAKARVEPPEGYDV | 2.08 |
| FLDERLYCESHAKRRVKPPEGYDV | 2.57 |
| FCDERLYCESHAKARVKPPEGYDV | 1.96 |
| FLDERLYCESHAKARVKRPEGYDV | 2.41 |
| FLDERLYCESHAKARVKPPEGPDV | 3.32 |
| FLDERLYCESHAKARVCPPEGYDV | 1.99 |
| NLDERLYCESHAKARVKPPEGYDV | 4.21 |
| FLDERLYCESHAKARVKPPEGYPV | 2.3 |
| FLDERLYCESIAKARVKPPEGYDV | 2.19 |
| FLDERLYCESHAKARVKPPLGYDV | 1.1 |
| FLDERLYCESHAKARVKGPEGYDV | 1.75 |
| ELDERLYCESHAKARVKPPEGYDV | 4.68 |
| FLDERLYCESHAKARVKMPEGYDV | 1.1 |
| FLDERLYCESHAKARNKPPEGYDV | 1.96 |
| FLDELLYCESHAKARVKPPEGYDV | 1.98 |
| FLDERLYCDSHAKARVKPPEGYDV | 1.8 |
| FLDERLYCESHAKARVKPPEGYDA | 2.09 |

| Variant | protein stability index |
| --- | --- |
| FLDERLYCVSHAKARVKPPEGYDV | 1.83 |
| FLDEPLYCESHAKARVKPPEGYDV | 2.98 |
| FLDERLYCESHAKADVKPPEGYDV | 1.93 |
| FLDERLYCESHAKARPKPPEGYDV | 1.64 |
| FVDERLYCESHAKARVKPPEGYDV | 2.42 |
| FLDERLYCESHAKAEVKPPEGYDV | 1.34 |
| FLDERLYMESHAKARVKPPEGYDV | 1.64 |
| FLDEELYCESHAKARVKPPEGYDV | 2.42 |
| FLDERLYCFSHAKARVKPPEGYDV | 1.49 |
| FLDERLYCESHAKARVKPPEGYDR | 1.99 |
| FLDERLYIESHAKARVKPPEGYDV | 1.41 |
| FLGERLYCESHAKARVKPPEGYDV | 1.92 |
| FLDERDYCESHAKARVKPPEGYDV | 4.54 |
| FLDERLNCESHAKARVKPPEGYDV | 4.26 |
| FLDERLYCESHAKARVKPEEGYDV | 1.05 |
| FLMERLYCESHAKARVKPPEGYDV | 1.48 |
| FLDERLYCESHADARVKPPEGYDV | 1.32 |
| FLDERLYCESHAKARSKPPEGYDV | 3.79 |
| FLDERLYCESHAGARVKPPEGYDV | 1.72 |
| FLDERLYCMSHAKARVKPPEGYDV | 2.41 |
| FLDERLYCESHDKARVKPPEGYDV | 2.48 |
| FLDVRLYCESHAKARVKPPEGYDV | 2.06 |
| FLDERLYCESHAKARVKPPYGYDV | 2.28 |
| FLDERLYCESHAKAPVKPPEGYDV | 1.26 |

| Variant | protein stability index |
| --- | --- |
| FLDERLVCESHAKARVKPPEGYDV | 3.85 |
| FLDERLYCESHAKARVKPGEGYDV | 2.01 |
| TLDERLYCESHAKARVKPPEGYDV | 4.72 |
| FLDCRLYCESHAKARVKPPEGYDV | 3.33 |
| FLDERLYCESHAKARRKPPEGYDV | 1.5 |
| FLDERLYCESHAKARVKDPEGYDV | 1.36 |
| FLDERLYCESHAKARVKPPEYYDV | 2.09 |
| FLDETLYCESHAKARVKPPEGYDV | 1.3 |
| FLDERLYCESHFKARVKPPEGYDV | 3.29 |
| FLDERLYCESKAKARVKPPEGYDV | 1.64 |
| FLDERLTCESHAKARVKPPEGYDV | 5.4 |
| FLDLRLYCESHAKARVKPPEGYDV | 2.34 |
| FLDERLYCESHAKARVKPPECYDV | 1.89 |
| FLDERLYCESHAKAWVKPPEGYDV | 3.92 |
| FLDERLYCESHAKANVKPPEGYDV | 1.53 |
| FLDERLYCESQAKARVKPPEGYDV | 1.34 |
| FLDERLYCESHAKARVKPPEGYDQ | 1.11 |
| FLDERLYCEHHAKARVKPPEGYDV | 1.58 |
| FLDSRLYCESHAKARVKPPEGYDV | 5.15 |
| FLDEVLYCESHAKARVKPPEGYDV | 2.35 |
